Test results: paper PMC5098423 (DNA repair, 2015)

Molecular target: T1, Q324H MUTYH (human, UniProt Q9UIF7-3 1-535, Q324H)
T1 sequence (looked up): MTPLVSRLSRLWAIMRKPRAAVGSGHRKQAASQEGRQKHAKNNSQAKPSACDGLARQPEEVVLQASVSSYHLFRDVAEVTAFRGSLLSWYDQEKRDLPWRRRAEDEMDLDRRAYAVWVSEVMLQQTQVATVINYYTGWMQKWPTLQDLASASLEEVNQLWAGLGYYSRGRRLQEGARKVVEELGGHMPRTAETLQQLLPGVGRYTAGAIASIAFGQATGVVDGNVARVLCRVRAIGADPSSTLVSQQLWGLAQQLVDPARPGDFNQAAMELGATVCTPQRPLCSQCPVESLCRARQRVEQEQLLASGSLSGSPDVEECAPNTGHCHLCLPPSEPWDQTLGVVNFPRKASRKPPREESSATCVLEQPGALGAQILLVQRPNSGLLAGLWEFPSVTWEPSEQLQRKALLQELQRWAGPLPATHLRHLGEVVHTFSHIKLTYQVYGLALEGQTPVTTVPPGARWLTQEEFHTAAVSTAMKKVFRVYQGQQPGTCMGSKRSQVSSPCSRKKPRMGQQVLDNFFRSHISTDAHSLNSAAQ
Test: pull-down

B1: Flag-tagged Hus1 (natural protein, UniProt O60921 1-280, looked up)
chain: MKFRAKIVDGACLNHFTRISNMIAKLAKTCTLRISPDKLNFILCDKLANGGVSMWCELEQENFFNEFQMEGVSAENNEIYLELTSENLSRALKTAQNARALKIKLTNKHFPCLTVSVELLSMSSSSRIVTHDIPIKVIPRKLWKDLQEPVVPDPDVSIYLPVLKTMKSVVEKMKNISNHLVIEANLDGELNLKIETELVCVTTHFKDLGNPPLASESTHEDRNVEHMAEVHIDIRKLLQFLAGQQVNPTKALCNIVNNKMVHFDLLHEDVSLQYFIPALS
- percent decrease of the interaction relative to WT MUTYH: ~20%
